Experimental findings from the supplement of paper PMC10126150 are described below.

± gives the standard deviation of the averaged measurements.
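Also: ATP exposure 15 min at 22 °C before imaging.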

In the series the test system is ATP. Description: switch fluorescence ratio, 500 uM ATP over buffer (Cy3 cluster intensity, sum of 5 cycles each) (fold (ratio)); higher = stronger signal-on switching upon ATP binding; sequences stand for … in TCGTCGGCAGCGTCAGATGTGTATAAGAGACAGTTTTTTTTTTTTTTTTTTTTTTTTT…TC. To be noted: aptamer strand: ATP DNA aptamer (quencher-CACCTGGGGGAGTATTGCGGAGGAAGG + anchor), 100 nM annealed; ATP concentration: 500 uM. The method in brief:
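Imaging in selection buffer was followed by imaging after 15 min with 500 uM ATP at 22 °C, for Cy3-labelled switching-strand clusters annealed to 100 nM quencher-labelled ATP aptamer on a modified Illumina MiSeq flow-cell. Five of these buffer/ATP cycles ran, separated by NaOH stripping and re-annealing. The fluorescence ratio per cluster is summed target-cycle over summed buffer-cycle Cy3 intensity, averaged per switch-domain sequence; clusters outside 100-1000 RFU were removed.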
As to GTTGTAAGG, the switch fluorescence ratio came to 1.02 ± 0.025.

GTTGTAACAT: the switch fluorescence ratio is 0.99541 ± 0.00081. Consider ATCTGCTAGG, for which the switch fluorescence ratio is 1.01 ± 0.031. With GGGCTGGATT the figure was 1.01 ± 0.036. Take TCTTTGTTTT: the switch fluorescence ratio was found to be 0.991 ± 0.021. With ACCCATTGTA the figure was 1.064 ± 0.0071; with AATATTGCAC, 1.04 ± 0.021; with ACCATATTTT, 1.073 ± 0.0094. With TATATTGTAA the figure was 1.01 ± 0.013; with TGCAGACGGT, 1.2 ± 0.14. The same measure for TTGGCGGACG: 0.984 ± 0.026; for AAGGCGGATA: 0.96 ± 0.013; for AAGACAGCGA: 1.41 ± 0.57. Turning to TAGAAATGAT, the switch fluorescence ratio was 0.987 ± 0.033. The same measure for CTTGATATTG: 0.999 ± 0.018; for TAGCGGGGGC: 1.02 ± 0.05. TCCGGTTTCG: the switch fluorescence ratio was determined as 1.02 ± 0.039.

In the case of AAGGGGATTT, the switch fluorescence ratio turned out to be 0.975 ± 0.016.

For GAAAGCGGGG, the switch fluorescence ratio is 0.968 ± 0.024. Take TGGTCCTATG: the switch fluorescence ratio came to 1.01 ± 0.054. With AGGGTGTCGA the figure was 1.02 ± 0.012; with GGAATCTAAC, 1.03 ± 0.048; with AGAAGGCTGC, 0.978 ± 0.0071. Take CACTTTACTT: the switch fluorescence ratio was found to be 1.28 ± 0.072.

As for TTCTTGGCGG, the switch fluorescence ratio is 1 ± 0.07. Turning to TGAACCAAGC, the switch fluorescence ratio amounted to 1.08 ± 0.011. The same measure for AGCCACGCGT: 1.01 ± 0.012; for TGGGTAAATT: 0.983 ± 0.014; for CTGAAGCTGT: 2.64 ± 1.3. As for CATGGGAAGA, the switch fluorescence ratio came to 0.9755 ± 0.004. For GGGTATAGTT, the switch fluorescence ratio turned out to be 0.992 ± 0.024. In the case of GTGATAAGAG, the switch fluorescence ratio is 0.999 ± 0.013. Consider GCAGGGAATT, for which the switch fluorescence ratio stood at 1 ± 0.045. With AAAAGGGGTT the figure was 1.02 ± 0.043. The same measure for CGAATCGGTA: 0.969 ± 0.00014; for AGACTGCTGG: 0.977 ± 0.018; for GACGTGACAA: 1.168 ± 0.0021.

Regarding GGGGTAGCCT, the switch fluorescence ratio was found to be 1 ± 0.04. Take TTTCGAGAAC: the switch fluorescence ratio worked out at 0.9873 ± 0.0066. With GCGATGGGGC the figure was 1.04 ± 0.039. With TATGGGTACG the figure was 1.01 ± 0.016; with GCTGTAAAGC, 1.03 ± 0.092; with GATCGATCGT, 1 ± 0.027. With GCGGGTCGGA the figure was 1.02 ± 0.039. On to TTGTTAGGTG, for which the switch fluorescence ratio came to 1.132 ± 0.0016.

Consider AGGGCAGGAC, for which the switch fluorescence ratio was determined as 1.41 ± 0.024. The same measure for TTGGGCTTAT: 1.001 ± 0.0066; for TTAGTCGTGC: 1.01 ± 0.026. On to TGGACTATTA, for which the switch fluorescence ratio was found to be 1.015 ± 0.01. With TCAATAGATG the figure was 0.998 ± 0.032; with GAGGTAGCTA, 1.03 ± 0.0051. For TACTACTATT, the switch fluorescence ratio is 1.03 ± 0.016. With TAGATGTTTA the figure was 1.32 ± 0.6; with TGCTGGGGAC, 0.992 ± 0.051; with GAGGTAGGGA, 1.06 ± 0.13.

Take ATGTTCATGG: the switch fluorescence ratio is 0.99 ± 0.043.

With TTTGATAGTC, the switch fluorescence ratio amounted to 0.966 ± 0.07. With CTTTTGTCAC the figure was 1.05 ± 0.042; with ATAGGACGCA, 1.265 ± 0.0027; with TTTTGAGCTT, 1.04 ± 0.081.

On to CGTTTTGGGT, for which the switch fluorescence ratio came to 1.01 ± 0.033.

For the sequence AATGGGGGCT, the switch fluorescence ratio turned out to be 1.02 ± 0.022. The same measure for ATCCGGTCGC: 1.04 ± 0.029; for CCTAGAGGGT: 1.07 ± 0.024; for AGGTGGGGTG: 1.03 ± 0.023. Take GGGAATCAAG: the switch fluorescence ratio stood at 0.9862 ± 0.0097.

Regarding CGAGGGGGA, the switch fluorescence ratio was 1.0066 ± 0.00091. Regarding GGTGTTACGT, the switch fluorescence ratio came out at 0.971 ± 0.017. With CGAAGGGGTG the figure was 0.9749 ± 0.0032. With TATTTAGAGG the figure was 1.01 ± 0.079; with ACGTGATTTG, 1.04 ± 0.025. In the case of GAGAGTAATT, the switch fluorescence ratio is 1.01 ± 0.051. With CGGGGATATG the figure was 0.9607 ± 0.0029. Take GGCAGGGGAT: the switch fluorescence ratio stood at 1.33 ± 0.6.

In the case of TTTCGGAAGC, the switch fluorescence ratio was 1.005 ± 0.0015. The same measure for AGAGTGCTAC: 1.04 ± 0.027; for TTACAAGGTT: 1.02 ± 0.013; for TAGGATACTT: 0.9769 ± 0.0016. The same measure for TGGTGTGTAC: 1.06 ± 0.076; for AAAGCCTGGG: 0.966 ± 0.027.

In the case of CTGTCTGGGG, the switch fluorescence ratio worked out at 0.9737 ± 0.0033. With ATTGATGACT the figure was 1.04 ± 0.027. For the sequence CAGTTCGTTT, the switch fluorescence ratio came out at 0.9845 ± 0.0063. As for TTCCACTTGA, the switch fluorescence ratio worked out at 1.04 ± 0.047. For CGGGGATTTT, the switch fluorescence ratio turned out to be 1.01 ± 0.051.

GGGCCGTTGG: the switch fluorescence ratio was 0.976 ± 0.042. With GGCTGAATGG the figure was 0.988 ± 0.033.

For the sequence GAGTTTGTTA, the switch fluorescence ratio is 1.01 ± 0.07.

Turning to AGATTTGTTG, the switch fluorescence ratio was 0.978 ± 0.034. With AGATGCCTGA the figure was 0.989 ± 0.035. Regarding CGTTGGGGGG, the switch fluorescence ratio stood at 0.999 ± 0.03.

As to TAAGGTAGGG, the switch fluorescence ratio amounted to 1.01 ± 0.013. With GCATTTTTTT the figure was 0.996 ± 0.032. The same measure for GGAAGGTAAT: 1 ± 0.048; for GGGGGCGGTG: 1 ± 0.038. With CTTGGACGGG the figure was 0.9706 ± 0.0021; with TAGTTGATGT, 1.026 ± 0.008; with AAGAAGTGTT, 1.003 ± 0.0039. Take AGTGGAGGT: the switch fluorescence ratio was 0.97 ± 0.041. Regarding TCTGGGGAGG, the switch fluorescence ratio was determined as 1 ± 0.02.

GGGACCGTGT: the switch fluorescence ratio turned out to be 1.01 ± 0.028. TTTTCCGGGG: the switch fluorescence ratio stood at 1.04 ± 0.045. Take TTTCCGGGTG: the switch fluorescence ratio is 2.5 ± 1.1.

Consider AGAAGTTGGA, for which the switch fluorescence ratio came out at 1 ± 0.05.

With TGGTTATGAA, the switch fluorescence ratio is 0.998 ± 0.03.

Take TACTGGCTAA: the switch fluorescence ratio stood at 1 ± 0.038. With ATTACTCACC the figure was 1.44 ± 0.03; with GGGGATAGCG, 1 ± 0.018; with GTACCATTTT, 0.9968 ± 0.0067. The same measure for CGCGAAGAAC: 1.039 ± 0.0088. With TAGGTGTGTA the figure was 0.984 ± 0.031; with GAAGTATCGG, 0.979 ± 0.024. Turning to AGGTAAGGGC, the switch fluorescence ratio is 1.01 ± 0.015. The same measure for TTGGGTGGGT: 1 ± 0.038. TGAGCATAGT: the switch fluorescence ratio was 1.026 ± 0.0023. For the sequence CACGGGTATT, the switch fluorescence ratio was 1.013 ± 0.0028. Consider GTTACAAGCG, for which the switch fluorescence ratio was determined as 0.994 ± 0.018. Take AGAGACAGGG: the switch fluorescence ratio is 1.05 ± 0.032.

TGAAATGGGT: the switch fluorescence ratio was determined as 1.17 ± 0.24. Consider GGGTCGGATG, for which the switch fluorescence ratio came to 1.03 ± 0.033.
